To fix the notation:
B4: S. cerevisiae Prp38 (pre-mRNA processing factor 38 domain containing protein), full-length wild type (natural protein, UniProt Q00723 1-242, looked up)
chain: MAVNEFQVESNISPKQLNNQSVSLVIPRLTRDKIHNSMYYKVNLSNESLRGNTMVELLKVMIGAFGTIKGQNGHLHMMVLGGIEFKCILMKLIEIRPNFQQLNFLLNVKNENGFDSKYIIALLLVYARLQYYYLNGNNKNDDDENDLIKLFKVQLYKYSQHYFKLKSFPLQVDCFAHSYNEELCIIHIDELVDWLATQDHIWGIPLGKCQWNKIYNSDEESSSSESESNGDSEDDNDTSSES
notes: Prp38, S. cerevisiae, ORF amplified from genomic DNA; also called scPrp38; source: E. coli Rosetta 2 (DE3) or BL21 (DE3) RIL, purified (Ni-NTA, TEV cleavage, SEC); not shown: His6, N-terminal, cleaved

Common to all, as to settings: both partners purified
In experiment [1] the target is B4. The experiment in a line: SEC; analytical gel filtration of two proteins: 50 uM each, equimolar, incubated 30 min at 4 °C in SEC buffer (10 mM Tris-HCl pH 8.0, 300 mM NaCl, 0.1 mM EDTA, 1 mM DTT); Superdex 75 or Superdex 200 Increase columns at 4 °C; peak fractions by SDS-PAGE.
Experiment [2] concerns the target B4. The experiment in a line: SEC; analytical gel filtration of three proteins (scSnu23 116-169, scPrp38, scSpp381 177-248) on a Superdex 75 10/300 column; fractions by SDS-PAGE. On the technique in general: Size exclusion chromatography separates by hydrodynamic size, large species first.
Experiment [3] concerns the target T1, S. cerevisiae Spp381 (pre-mRNA-splicing factor suppressor of prp38-1), full-length wild type (S. cerevisiae, UniProt P38282 1-291).
T1 construct: Spp381, S. cerevisiae, UniProt P38282, ORF amplified from genomic DNA; also called scSpp381; scSpp381^FL; source: E. coli Rosetta 2 (DE3) or BL21 (DE3) RIL, purified (Ni-NTA, TEV cleavage, SEC); not shown: His6, N-terminal, cleaved
T1 sequence (looked up): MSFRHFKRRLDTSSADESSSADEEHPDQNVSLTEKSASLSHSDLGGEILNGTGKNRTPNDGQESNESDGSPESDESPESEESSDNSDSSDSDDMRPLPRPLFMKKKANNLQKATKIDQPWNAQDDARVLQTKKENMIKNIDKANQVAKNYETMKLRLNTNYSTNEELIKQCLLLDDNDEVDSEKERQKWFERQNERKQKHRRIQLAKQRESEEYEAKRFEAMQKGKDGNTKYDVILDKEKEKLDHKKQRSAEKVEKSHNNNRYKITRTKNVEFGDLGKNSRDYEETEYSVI
Description: SEC; analytical gel filtration of two proteins: 50 uM each, equimolar, incubated 30 min at 4 °C in SEC buffer (10 mM Tris-HCl pH 8.0, 300 mM NaCl, 0.1 mM EDTA, 1 mM DTT); Superdex 75 or Superdex 200 Increase columns at 4 °C; peak fractions by SDS-PAGE.

B1: S. cerevisiae Spp381 residues 177-248 (domain or fragment, UniProt P38282 177-248, looked up)
chain: NDEVDSEKERQKWFERQNERKQKHRRIQLAKQRESEEYEAKRFEAMQKGKDGNTKYDVILDKEKEKLDHKKQ
notes: also called scSpp381^177-248; source: E. coli Rosetta 2 (DE3) or BL21 (DE3) RIL, purified (Ni-NTA, TEV cleavage, SEC); not shown: His6, N-terminal, cleaved
On to B1, for which the binding result in experiment [1] is on record as “binds”.

B2: Human MFAP1 (microfibrillar-associated protein 1) residues 267-344 (domain or fragment)
chain: not shown
notes: the minimal fragment used for crystallization of the hsPrp38-hsMFAP1 complex; source: E. coli Rosetta 2 (DE3) or BL21 (DE3) RIL, purified (Ni-NTA, TEV cleavage, SEC); not shown: His6, N-terminal, cleaved
As to B2, the binding result in experiment [1] is “binds”.

B3: S. cerevisiae Snu23 (23 kDa small nuclear ribonucleoprotein component) residues 116-169 (domain or fragment, UniProt Q12368 116-169, looked up)
chain: LIIDIRDNDDVPQEEFELCYHNLIKDFVEVRSMETQSKRKRLLDTDVEKAKKVA
Regarding B3, in experiment [2], the binding result is listed as “binds”.

With B4, in experiment [3], the binding result is “binds”.

(Values after PMC5364666, “Human MFAP1 is a cryptic ortholog of the Saccharomyces cerevisiae Spp381 splicing factor” (BMC Evolutionary Biology, 2017).)
